Data from US20200262867A1 (WNTRX PHARMACEUTICALS, published 2020).
*1 amine or outer side, *2 acyl side, *3 side chain or, on linkers, in order; H or OH if unused. Bridges are numbered along the chain shown (N, C = ends). Primed or numbered codes have the meaning given here. Where no end group is shown, it is not given here. Side-chain parts run from the residue outwards. [ ]: non-standard residue; d: D form. The star is where a group is joined. peptoid‑Q = (5-amino-5-oxopentyl)glycine, N-substituted glycine, NC(=O)CCCCN(CC(=O)[*:2])[*:1]; Diphenylacetyl = O=C(C(c1ccccc1)c1ccccc1)*; 2Nal = N[C@@H](Cc1ccc2ccccc2c1)C(=O)O; Hydrocinnamoyl = O=C(CCc1ccccc1)*; NMeR = CN[C@@H](CCCNC(=N)N)C(=O)O; Palmitoyl = CCCCCCCCCCCCCCCC(=O)*; Ala(cPr) = N[C@@H](CC1CC1)C(=O)O; hArg = N=C(N)NCCCC[C@H](N)C(=O)O; NMeE = CN[C@@H](CCC(=O)O)C(=O)O; NMeQ = CN[C@@H](CCC(N)=O)C(=O)O; dNMeQ = CN[C@H](CCC(N)=O)C(=O)O; Cha = N[C@@H](CC1CCCCC1)C(=O)O; Cba = N[C@@H](CC1CCC1)C(=O)O; S5 = C=CCCC[C@](C)(N)C(=O)O; Ac6c = NC1(C(=O)O)CCCCC1; PEG4′ = not defined here; βAla = NCCC(=O)O

T1: β-catenin (UniProt P35222 1-781, limits assumed)
T1 construct: also called beta-catenin
T1 sequence (looked up): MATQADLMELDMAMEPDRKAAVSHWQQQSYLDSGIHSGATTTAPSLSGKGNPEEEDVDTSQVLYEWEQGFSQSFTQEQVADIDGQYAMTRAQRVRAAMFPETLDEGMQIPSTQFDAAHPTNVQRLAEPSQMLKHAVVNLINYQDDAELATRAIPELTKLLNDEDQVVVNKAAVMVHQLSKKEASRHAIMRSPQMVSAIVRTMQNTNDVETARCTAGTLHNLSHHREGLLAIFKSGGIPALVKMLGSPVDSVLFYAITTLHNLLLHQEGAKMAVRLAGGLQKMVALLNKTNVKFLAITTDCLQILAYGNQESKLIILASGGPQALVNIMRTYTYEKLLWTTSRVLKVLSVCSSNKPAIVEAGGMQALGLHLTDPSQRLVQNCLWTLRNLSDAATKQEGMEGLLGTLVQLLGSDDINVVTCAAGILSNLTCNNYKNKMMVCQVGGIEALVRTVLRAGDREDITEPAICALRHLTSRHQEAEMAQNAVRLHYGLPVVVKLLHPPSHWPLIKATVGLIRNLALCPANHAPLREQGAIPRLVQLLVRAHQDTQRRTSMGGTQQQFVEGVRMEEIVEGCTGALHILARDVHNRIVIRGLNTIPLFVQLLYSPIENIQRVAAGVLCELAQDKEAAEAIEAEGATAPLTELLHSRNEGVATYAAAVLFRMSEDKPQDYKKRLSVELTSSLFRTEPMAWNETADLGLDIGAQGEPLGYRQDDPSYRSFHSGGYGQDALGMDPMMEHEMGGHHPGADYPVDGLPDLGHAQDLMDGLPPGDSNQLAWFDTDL

T2: β-catenin, P35222
T2 chain: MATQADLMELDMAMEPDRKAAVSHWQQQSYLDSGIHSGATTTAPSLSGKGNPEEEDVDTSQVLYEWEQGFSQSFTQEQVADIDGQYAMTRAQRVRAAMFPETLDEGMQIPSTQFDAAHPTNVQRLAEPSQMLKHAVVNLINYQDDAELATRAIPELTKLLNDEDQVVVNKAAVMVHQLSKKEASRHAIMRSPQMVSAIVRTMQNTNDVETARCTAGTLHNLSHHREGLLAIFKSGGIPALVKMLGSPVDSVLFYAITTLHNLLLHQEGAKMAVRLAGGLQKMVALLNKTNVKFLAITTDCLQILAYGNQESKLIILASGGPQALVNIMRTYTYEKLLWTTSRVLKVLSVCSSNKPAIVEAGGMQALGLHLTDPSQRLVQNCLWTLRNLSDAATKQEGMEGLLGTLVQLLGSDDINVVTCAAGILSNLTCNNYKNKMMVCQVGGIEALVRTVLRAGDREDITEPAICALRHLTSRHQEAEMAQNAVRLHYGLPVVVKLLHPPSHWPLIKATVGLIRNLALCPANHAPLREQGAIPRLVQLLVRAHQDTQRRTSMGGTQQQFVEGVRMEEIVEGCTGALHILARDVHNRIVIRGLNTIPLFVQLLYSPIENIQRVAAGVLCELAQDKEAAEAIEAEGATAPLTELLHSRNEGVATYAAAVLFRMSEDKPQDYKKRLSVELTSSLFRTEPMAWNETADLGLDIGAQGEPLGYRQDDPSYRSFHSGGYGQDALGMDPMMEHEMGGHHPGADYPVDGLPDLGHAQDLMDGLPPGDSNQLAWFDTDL

B1: SEQ ID NO: 180 (peptide)
peptide: Ac-HRQRSLQTLR[S5]IQR[S5][Cha][2Nal]-NH2
modifications: staple 11-15
SMILES: CC[C@H](C)[C@@H]1NC(=O)[C@@](C)(NC(=O)[C@H](CCCNC(=N)N)NC(=O)[C@H](CC(C)C)NC(=O)[C@@H](NC(=O)[C@H](CCC(N)=O)NC(=O)[C@H](CC(C)C)NC(=O)[C@H](CO)NC(=O)[C@H](CCCNC(=N)N)NC(=O)[C@H](CCC(N)=O)NC(=O)[C@H](CCCNC(=N)N)NC(=O)[C@H](Cc2c[nH]cn2)NC(C)=O)[C@@H](C)O)CCCC=CCCC[C@@](C)(C(=O)N[C@@H](CC2CCCCC2)C(=O)N[C@@H](Cc2ccc3ccccc3c2)C(N)=O)NC(=O)[C@H](CCCNC(=N)N)NC(=O)[C@H](CCC(N)=O)NC1=O
B2: SEQ ID NO: 108 (peptide)
peptide: L[dNMeQ]TLR[S5]IQR[S5][Cba][2Nal]
modifications: staple 6-10; not fully specified (N-terminus, C-terminus); printed as L(N-methylQ)TLRXIQRX(CBA)(2-Nal), X/X stapled, (S) α-methyl, N-terminal Ac, C-terminal NH2
B3: SEQ ID NO: 163 (peptide)
peptide: HRQRSLQT[Cha]R[S5]IQR[S5][Cba][2Nal]
modifications: staple 11-15; not fully specified (residues 3, 7, N-terminus, C-terminus); printed as HR(N-methylQ)RSL(N-methylQ)T(Cha)RXIQRX(CBA)(2-Nal), X/X stapled, (S) α-methyl, N-terminal Ac, C-terminal NH2

Tests used:
[1] = biological target: T1, β-catenin; assay: ALPHA Screen (BCL9/β-catenin);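 note: bead proximity readout with the polypeptide linked to donor beads and β-catenin fixed on acceptor beads, their binding bringing the beads close enough to emit signal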
Text: In this assay, a polypeptide is conjugated to a donor bead and its target protein (i.e., β-catenin) is attached to an acceptor bead. When the two beads are in proximity due to the binding of the polypeptide to the target protein, a signal is generated and the binding affinity of the polypeptide can be quantitatively calculated. The assay may be conducted in the presence or absence of an unconjugated control polypeptide.

[2] = biological target: T1, β-catenin; assay: cell-based or functional assay
[3] = biological target: T2, β-catenin, P35222; assay: ALPHA Screen (BCL9/β-catenin);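 note: bead proximity readout with the polypeptide linked to donor beads and β-catenin fixed on acceptor beads, their binding bringing the beads close enough to emit signal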
[4] = biological target: T2, β-catenin, P35222; assay: cell-based or functional assay

Binder	IC50 [1]	IC50, Wnt/Beta-Catenin-LEF-TCF-bla HCT116 inhibitor screen [2]	IC50 [3]	IC50, Colo320DM cell viability [4]
Ac-HRQRSLQTLR[S5]IQR[S5][Ac6c][2Nal]-NH2 (staple 11-15) [SEQ ID NO: 177]	211 nM	4.45 µM		
Diphenylacetyl-L[NMeQ]TLR[S5]IQR[S5][Cba][2Nal]-NH2 (staple 6-10; also: N-methyl-Gln at 2: filing says both D and L) [SEQ ID NO: 139]	4580 nM			
Ac-HRQ[hArg]SLQTLR[S5]IQR[S5][Cba][2Nal]-NH2 (staple 11-15) [SEQ ID NO: 167]	356 nM			
B1	138 nM	2.21 µM		
Ac-HR[NMeQ]RSL[NMeQ]TLR[S5]IQR[S5][Cha][2Nal]-NH2 (staple 11-15; also: N-methylQ at 3 and 7: D or L (both stated)) [SEQ ID NO: 181]	186 nM	4.46 µM		
B2	408 nM	3.16 µM		
Ac-HRQ[NMeR]SLQTLR[S5]IQR[S5][Cba][2Nal]-NH2 (staple 11-15) [SEQ ID NO: 168]	434 nM			
{2‑cyclohexylacetyl}-L[NMeQ]TLR[S5]IQR[S5][Cba][2Nal]-NH2 (staple 6-10; also: N-methyl-Gln at 2: filing says both D and L) [SEQ ID NO: 138]	3820 nM			
Hydrocinnamoyl-L[NMeQ]TLR[S5]IQR[S5][Cba][2Nal]-NH2 (staple 6-10; also: N-methyl-Gln at 2: filing says both D and L) [SEQ ID NO: 137]	8360 nM			
Ac-HRQRSL[peptoid‑Q]TLR[S5]IQR[S5][Cba][2Nal]-NH2 (staple 11-15) [SEQ ID NO: 169]	328 nM			
LQTLR[S5]IQR[S5]L[2Nal][βAla][βAla]GRKKRRQRRRPQK([PEG4′-Palmitoyl]) (staple 6-10) [SEQ ID NO: 34a]			1380 nM	0.02 mM
{3,5‑dihydroxybenzoic acid}-L[NMeQ]TLR[S5]IQR[S5][Cba][2Nal]-NH2 (staple 6-10; also: N-methyl-Gln at 2: filing says both D and L) [SEQ ID NO: 140]	8160 nM			
Ac-HRQRSLQTLR[S5]IQR[S5][Ala(cPr)][2Nal]-NH2 (staple 11-15) [SEQ ID NO: 162]	322 nM	7.05 µM		
Ac-HRQRSLQTLR[S5]IQR[S5][Cba][2Nal]-NH2 (staple 11-15) [SEQ ID NO: 147]	186 nM	1.54 µM		
Ac-HR[NMeE]RSL[NMeQ]TLR[S5]IQR[S5][Cba][2Nal]-NH2 (staple 11-15) [SEQ ID NO: 154]	661 nM	2.26 µM		
B3	195 nM	4.43 µM		
